In US20240117018A1:

Tests used:
Experiment in all cases: cell-based or functional assay
[1] = molecular target: HIV-1 Env pseudovirus 1394C9G1(Rev-) (HIV-1)
[2] = molecular target: HIV-1 Env pseudovirus 7030102001E5(Rev-) (HIV-1)
[3] = molecular target: HIV-1 Env pseudovirus BF1266.431a (HIV-1)
[4] = molecular target: HIV-1 Env pseudovirus CNE19 (HIV-1)
[5] = molecular target: HIV-1 Env pseudovirus CNE30 (HIV-1)
[6] = molecular target: HIV-1 Env pseudovirus CNE53 (HIV-1)
[7] = molecular target: HIV-1 Env pseudovirus Ce1086_B2 (HIV-1)
[8] = molecular target: HIV-1 Env pseudovirus Ce1172_H1 (HIV-1)
[9] = molecular target: HIV-1 Env pseudovirus Ce704809221_1B3 (HIV-1)
[10] = molecular target: HIV-1 Env pseudovirus Du422.1 (HIV-1)
[11] = molecular target: HIV-1 Env pseudovirus Q259.d2.17 (HIV-1)
[12] = molecular target: HIV-1 Env pseudovirus Q769.d22 (HIV-1)
[13] = molecular target: HIV-1 Env pseudovirus QH0692.42 (HIV-1)
[14] = molecular target: HIV-1 Env pseudovirus THRO4156.18 (HIV-1)
[15] = molecular target: HIV-1 Env pseudovirus WITO4160.33 (HIV-1)
[16] = molecular target: HIV-1 Env pseudovirus ZM214M.PL15 (HIV-1)
[17] = molecular target: HIV-1 Env pseudovirus ZM233M.PB6 (HIV-1)
[18] = molecular target: HIV-1 Env pseudovirus ZM53M.PB12 (HIV-1)
[19] = molecular target: MuLV envelope (negative control pseudovirus) (MuLV)
[20] = molecular target: Env of HIV-1 pseudovirus 1006_11_C3_1601 (HIV-1)
[21] = molecular target: Env of HIV-1 pseudovirus 9004SS_A3_4 (HIV-1)
[22] = molecular target: Env of HIV-1 pseudovirus Ce0393_C3 (HIV-1)
[23] = molecular target: Env of HIV-1 pseudovirus Ce2010_F5 (HIV-1)
[24] = molecular target: Env of HIV-1 pseudovirus Du156.12 (HIV-1)
[25] = molecular target: Env of HIV-1 pseudovirus Q23.17 (HIV-1)
[26] = molecular target: Env of HIV-1 pseudovirus REJO4541.67 (HIV-1)
[27] = molecular target: Env of HIV-1 pseudovirus RHPA4259.7 (HIV-1)
[28] = molecular target: Env of HIV-1 pseudovirus SC05_8C11_2344 (HIV-1)
[29] = molecular target: Env of HIV-1 pseudovirus TRO.11 (HIV-1)
[30] = molecular target: Env of HIV-1 pseudovirus WITO4160.33 (HIV-1)

Substance: N49P11 (antibody)
- IC50 [1]: 6.13 µg/mL
- IC80 [1]: 22.3 µg/mL
- MPI [1]: 100
- IC50 [2]: 0.635 µg/mL
- IC80 [2]: 2.29 µg/mL
- MPI [2]: 100
- IC50 [3]: 0.998 µg/mL
- IC80 [3]: 7.13 µg/mL
- MPI [3]: 100
- IC50 [4]: 0.437 µg/mL
- IC80 [4]: 5.5 µg/mL
- MPI [4]: 100
- IC50 [5]: 0.889 µg/mL
- IC80 [5]: 4.45 µg/mL
- MPI [5]: 100
- IC50 [6]: 0.43 µg/mL
- IC80 [6]: 2.88 µg/mL
- MPI [6]: 100
- IC50 [7]: 2.19 µg/mL
- IC80 [7]: 11.7 µg/mL
- MPI [7]: 100
- IC50 [8]: 3.55 µg/mL
- IC80 [8]: 19.2 µg/mL
- MPI [8]: 100
- IC50 [9]: 0.644 µg/mL
- IC80 [9]: 3.3 µg/mL
- MPI [9]: 100
- IC50 [10]: 8.81 µg/mL
- IC80 [10]: 21.2 µg/mL
- MPI [10]: 100
- IC50 [11]: 8.42 µg/mL
- IC80 [11]: 21.4 µg/mL
- MPI [11]: 100
- IC50 [12]: 0.048 µg/mL
- IC80 [12]: 0.308 µg/mL
- MPI [12]: 100
- IC50 [13]: 0.55 µg/mL
- IC80 [13]: 2.65 µg/mL
- MPI [13]: 100
- IC50 [14]: 1.84 µg/mL
- IC80 [14]: 10.4 µg/mL
- MPI [14]: 100
- IC50 [15]: 4.86 µg/mL
- IC80 [15]: 13.2 µg/mL
- MPI [15]: 100
- IC50 [16]: 1.35 µg/mL
- IC80 [16]: 8.98 µg/mL
- MPI [16]: 100
- IC50 [17]: 5.92 µg/mL
- IC80 [17]: 18.5 µg/mL
- MPI [17]: 100
- IC50 [18]: 1.05 µg/mL
- IC80 [18]: 6.53 µg/mL
- MPI [18]: 100

Substance: N49P7.1 (antibody)
- IC50 (neutralisation, TZM.bl cells) [19]: > 50 µg/mL
- IC80 (neutralisation, TZM.bl cells) [19]: > 50 µg/mL
- MPI [19]: 4

Substance: 10E8 (antibody)
- IC50 [20]: 0.172 µg/mL
- IC80 [20]: 3 µg/mL
- IC50 [21]: 1.16 µg/mL
- IC80 [21]: 6.76 µg/mL
- IC50 [22]: 1.18 µg/mL
- IC80 [22]: 7.42 µg/mL
- IC50 [23]: 1.84 µg/mL
- IC80 [23]: 8.61 µg/mL
- IC50 [24]: 0.034 µg/mL
- IC80 [24]: 0.144 µg/mL
- IC50 [25]: 1.64 µg/mL
- IC80 [25]: 7.04 µg/mL
- IC50 [26]: 0.203 µg/mL
- IC80 [26]: 1.69 µg/mL
- IC50 [27]: 0.728 µg/mL
- IC80 [27]: 5.28 µg/mL
- IC50 [28]: 0.665 µg/mL
- IC80 [28]: 2.74 µg/mL
- IC50 [29]: 0.034 µg/mL
- IC80 [29]: 0.25 µg/mL
- IC50 [30]: 0.094 µg/mL
- IC80 [30]: 1.23 µg/mL

Substance: 10-1074 (antibody)
- IC50 [20]: 0.003 µg/mL
- IC80 [20]: 0.013 µg/mL
- IC50 [21]: 0.011 µg/mL
- IC80 [21]: 0.03 µg/mL
- IC50 [22]: > 50 µg/mL
- IC80 [22]: > 50 µg/mL
- IC50 [23]: > 50 µg/mL
- IC80 [23]: > 50 µg/mL
- IC50 [24]: 0.015 µg/mL
- IC80 [24]: 0.076 µg/mL
- IC50 [25]: 0.006 µg/mL
- IC80 [25]: 0.021 µg/mL
- IC50 [26]: > 50 µg/mL
- IC80 [26]: > 50 µg/mL
- IC50 [27]: 0.021 µg/mL
- IC80 [27]: 0.118 µg/mL
- IC50 [28]: 0.052 µg/mL
- IC80 [28]: 0.123 µg/mL
- IC50 [29]: 0.008 µg/mL
- IC80 [29]: 0.057 µg/mL
- IC50 [30]: 0.185 µg/mL
- IC80 [30]: 2.11 µg/mL
